In US7629169B2, “Methods for the production of platelet-derived growth factor-responsive neural precursor cells” (Stem Cell Therapeutics Corp., priority 2004, dated 2009):

How the values were obtained:
[1] = tested on: PDGF-generated neurospheres; test: Differentiation of primary PDGF-AA-generated neurospheres, immunocytochemistry; assay type: cell-based, mouse
[2] = tested on: PDGF-responsive neural precursors (PRPs) from dissociated E14 MGE/LGE; test: Primary neurosphere generation from dissociated E14 ganglionic eminences; assay type: cell-based, mouse; details: for neurosphere size / number of neurospheres produced: neurotrophin in the presence of PDGF
Method: Cell culture. The culture medium (MHM) was composed of DMEM/F-12 (1:1) including HEPES buffer (5 mM), glucose (0.6%), sodium bicarbonate (3 mM), glutamine (2 mM), insulin (25 μg/ml), transferrin (100 μg/ml), progesterone (20 nM), putrescine (10 μM), and sodium selenite (30 nM; all from Sigma, St. Louis, Mo., except glutamine from Invitrogen, Carlsbad, Calif.). The lateral, medial, or both ganglionic eminences (LGE, MGE or both) were removed from Embryonic Day 14 (E14) mouse embryos and mechanically dissociated with a fire-polished Pasteur pipette in MHM. Cells were plated at a density of […] unless otherwise indicated.
For neurosphere generation, PDGF-AA (100 ng/ml; Peprotech, Rocky Hill, N.J.), PDGF-BB (100 ng/ml; Peprotech), EGF (20 ng/ml; Peprotech), FGF2 (20 ng/ml; R&D [Minneapolis, Minn.])+heparan sulfate (2 μg/ml; HS; R&D), SHH (2 ug/ml; R&D), cyclopamine (5 μM; Toronto Research Chemicals, North York, Ontario), and/or DMSO (0.1%; carrier) was added to the MHM. MHM used to generate neurospheres also contained 2% B27 (Invitrogen).
[…] is one of the earliest markers of OLPs, and signaling by PDGF-AA is required for the generation of most oligodendrocytes (Fruttiger et al., Development 126:457 (1999)). Increasing concentrations of PDGF-AA were used to determine whether stimulation of dissociated E14 medial and lateral ganglionic eminences. (MGE and LGE, respectively) results in generation of neurospheres. The neurosphere assay was used because manipulation of primary cells is minimal compared to the immunopanning procedures used to isolate O-2A progenitors.
The effect of brain-derived neurotrophic factor (BDNF), neurotrophin-3 (NT-3), and nerve growth factor (NGF) on PRPs was determined. Cells were cultured as previously reported (Chojnacki et al., J Neurosci 24(48):10888 2004) in the presence of various combinations of PDGF, brain-derived neurotrophic factor (BDNF), NT-3, nerve growth factor (NGF), and the effects on neurosphere generation characterized. MHM is the defined medium used in cultures without growth factor.

[3] = tested on: PDGFRα-labeled cells (PRPs); test: PDGFRα and Tunel staining of dissociated primary cells, 24 hours; assay type: cell-based
Method: Dissociated primary cells were cultured in 24-well plates with or without NT-3 for 24 hours, stained for PDGFRα and Tunel, and the number of labeled cells counted.

Molecule | GFAP-immunoreactive cells (astrocytes) ([1]; 2 DIV differentiation) | OLIG2 / O4 expression ([1]; 6 DIV PDGF-generated neurospheres differentiated 2 DIV) | generation of neurospheres by timing of treatment ([2]; initial 24 hour NT-3 vs exposure after first 24 hours) | neurosphere size [2] | number of neurospheres produced [2] | Tunel and PDGFRα co-labeled cells ([3]; with or without NT-3, 24 hours) | PDGFRα-labeled cells ([3]; with vs without NT-3, 24 hours)
CNTF: ciliary neurotrophic factor (protein, UniProt P26441 1-200, looked up) Ciliary neurotrophic factor: MAFTEHSPLTPHRRDLCSRSIWLARKIRSDLTALTESYVKHQGLNKNINLDSADGMPVASTDQWSELTEAERLQENLQAYRTFHVLLARLLEDQQVHFTPTEGDFHQAIHTLLLQVAAFAYQIEELMILLEYKIPRNEADGMPINVGDGGLFEKKLWGLKVLQELSQWTVRSIHDLRFISSHQTGIPARGSHYIANNKKM | did not induce GFAP expression | no effect on OLIG2 or O4 expression | – | – | – | – | –
NT-3: neurotrophin-3 (protein, UniProt P20783 139-257, looked up) Neurotrophin-3: YAEHKSHRGEYSVCDSESLWVTDKSSAIDIRGHQVTVLGEIKTGNSPVKQYFYETRCKEARPVKNGCRGIDDKHWNSQCKTSQTYVRALTSENNKLVGWRWIRIDTSCVCALSRKIGRT | – | – | more effective at promoting the generation of neurospheres than continued exposure to NT-3 after the first 24 hours | promote the generation of larger neurospheres | more neurospheres are produced | no Tunel and PDGFRα co-labeled cells were observed | more PDGFRα-labeled cells
BDNF: brain-derived neurotrophic factor (protein, UniProt P23560 19-247, looked up) Neurotrophic factor BDNF …: APMKEANIRGQGGLAYPGVRTHGTLESVNGPKAGSRGLTSLADTFEHVIEELLDEDQKVRPNEENNKDADLYTSRVMLSSQVPLEPPLLFLLEEYKNYLDAANMSMRVRRHSDPARRGELSVCDSISEWVTAADKKTAVDMSGGTVTVLEKVPVSKGQLKQYFYETKCNPMGYTKEGCRGIDKRHWNSQCRTTQSYVRALTMDSKKRIGWRFIRIDTSCVCTLTIKRGR | – | – | – | promote the generation of larger neurospheres | more neurospheres are produced | – | –
